From patent US20240059789A1 (Janssen / Centocor, published 2024) come the findings set out here.

Substitutions are numbered along the chain they refer to.

First the molecules themselves.
B1: PSMB890 (antibody, human IgG1, lambda, L234A L235A, V domains shown)
VH: EVQLVESGGGLVKPGGSLRLSCAASGFTFSRYNMNWVRQAPGKGLEWVSSINSNSRYIYYADSVKGRFTISRDSAKNSLYLQMNSLRAEDTAVYYCAKTMGDYYYYYGMDVWGQGTTVTVSS
VL: SSELTQPPSVSGAPGQRVTISCAGSLSNIGAGYDVHWYQQLPGTAPKLLIYGNINRLSGVPERFSGSKSGTSASLAITGLQAEDGADYYCQSYDSSLSSYVFGTGTKVTVLG
B2: PS3B918 (bispecific antibody, human IgG1, lambda, L234A L235A)
heavy 1: QVQLQQSGPRLVRPSQTLSLTCAISGDSVFNNNAAWSWIRQSPSRGLEWLGRTYYRSKWLYDYAVSVKSRITVNPDTSRNQFTLQLNSVTPEDTALYYCARGYSSSFDYWGQGTLVTVSSASTKGPSVFPLAPSSKSTSGGTAALGCLVKDYFPEPVTVSWNSGALTSGVHTFPAVLQSSGLYSLSSVVTVPSSSLGTQTYICNVNHKPSNTKVDKKVEPKSCDKTHTCPPCPAPEAAGGPSVFLFPPKPKDTLMISRTPEVTCVVVSVSHEDPEVKFNWYVDGVEVHNAKTKPREEQYNSTYRVVSVLTVLHQDWLNGKEYKCKVSNKALPAPIEKTISKAKGQPREPQVYTLPPSREEMTKNQVSLTCLVKGFYPSDIAVEWESNGQPENNYKTTPPVLDSDGSFLLYSKLTVDKSRWQQGNVFSCSVMHEALHNHYTQKSLSLSPG
light 1: QSALTQPASVSGSPGQSITISCTGTSSNIGTYKFVSWYQQHPDKAPKVLLYEVSKRPSGVSSRFSGSKSGNTASLTISGLQAEDQADYHCVSYAGSGTLLFGGGTKLTVLGQPKAAPSVTLFPPSSEELQANKATLVCLISDFYPGAVTVAWKADSSPVKAGVETTTPSKQSNNKYAASSYLSLTPEQWKSHRSYSCQVTHEGSTVEKTVAPTECS
heavy 2: EVQLVESGGGLVKPGGSLRLSCAASGFTFSRYNMNWVRQAPGKGLEWVSSINSNSRYIYYADSVKGRFTISRDSAKNSLYLQMNSLRAEDTAVYYCAKTMGDYYYYYGMDVWGQGTTVTVSSASTKGPSVFPLAPSSKSTSGGTAALGCLVKDYFPEPVTVSWNSGALTSGVHTFPAVLQSSGLYSLSSVVTVPSSSLGTQTYICNVNHKPSNTKVDKKVEPKSCDKTHTCPPCPAPEAAGGPSVFLFPPKPKDTLMISRTPEVTCVVVSVSHEDPEVKFNWYVDGVEVHNAKTKPREEQYNSTYRVVSVLTVLHQDWLNGKEYKCKVSNKALPAPIEKTISKAKGQPREPQVYTLPPSREEMTKNQVSLTCLVKGFYPSDIAVEWESNGQPENNYKTTPPVLDSDGSFFLYSRLTVDKSRWQQGNVFSCSVMHEALHNHYTQKSLSLSPG
light 2: SSELTQPPSVSGAPGQRVTISCAGSLSNIGAGYDVHWYQQLPGTAPKLLIYGNINRLSGVPERFSGSKSGTSASLAITGLQAEDGADYYCQSYDSSLSSYVFGTGTKVTVLGQPKAAPSVTLFPPSSEELQANKATLVCLISDFYPGAVTVAWKADSSPVKAGVETTTPSKQSNNKYAASSYLSLTPEQWKSHRSYSCQVTHEGSTVEKTVAPTECS
B3: PS3B915 (bispecific antibody, human IgG1, lambda, L234A L235A)
heavy 1: B2 heavy 1
light 1: B2 light 1
heavy 2: not shown
light 2: not shown
B4: PS3B913 (bispecific antibody, human IgG1, lambda, L234A L235A)
heavy 1: B2 heavy 1
light 1: B2 light 1
heavy 2: not shown
light 2: not shown
B5: PS3B932 (bispecific antibody, human IgG1, kappa, lambda, L234A L235A)
heavy 1: EVQLVESGGGLVKPGGSLRLSCAASGFTFSRYNMNWVRQAPGKGLEWVSSISTSSNYIYYADSVKGRFTFSRDNAKNSLDLQMSGLRAEDTAIYYCTRGWGPFDYWGQGTLVTVSSASTKGPSVFPLAPSSKSTSGGTAALGCLVKDYFPEPVTVSWNSGALTSGVHTFPAVLQSSGLYSLSSVVTVPSSSLGTQTYICNVNHKPSNTKVDKKVEPKSCDKTHTCPPCPAPEAAGGPSVFLFPPKPKDTLMISRTPEVTCVVVSVSHEDPEVKFNWYVDGVEVHNAKTKPREEQYNSTYRVVSVLTVLHQDWLNGKEYKCKVSNKALPAPIEKTISKAKGQPREPQVYTLPPSREEMTKNQVSLTCLVKGFYPSDIAVEWESNGQPENNYKTTPPVLDSDGSFLLYSKLTVDKSRWQQGNVFSCSVMHEALHNHYTQKSLSLSP
light 1: DIQMTQSPSSLSASVGDRVTITCRARQSIGTAIHWYQQKPGKAPKLLIKYASESISGVPSRFSGSGSGTDFTLTISSLQPEDFATYYCQQSGSWPYTFGQGTKLEIKRTVAAPSVFIFPPSDEQLKSGTASVVCLLNNFYPREAKVQWKVDNALQSGNSQESVTEQDSKDSTYSLSSTLTLSKADYEKHKVYACEVTHQGLSSPVTKSFNRGEC
heavy 2: EVQLVESGGGLVQPGGSLRLSCAASGFTFSSYAMSWVRQAPGKGLEWVSAISGGIGSTYYADSVKGRFTISRDNSKNTLWLQMNSLRAEDTAVYYCAKDGVGATPYYFDYWGQGTLVTVSSASTKGPSVFPLAPSSKSTSGGTAALGCLVKDYFPEPVTVSWNSGALTSGVHTFPAVLQSSGLYSLSSVVTVPSSSLGTQTYICNVNHKPSNTKVDKKVEPKSCDKTHTCPPCPAPEAAGGPSVFLFPPKPKDTLMISRTPEVTCVVVSVSHEDPEVKFNWYVDGVEVHNAKTKPREEQYNSTYRVVSVLTVLHQDWLNGKEYKCKVSNKALPAPIEKTISKAKGQPREPQVYTLPPSREEMTKNQVSLTCLVKGFYPSDIAVEWESNGQPENNYKTTPPVLDSDGSFFLYSRLTVDKSRWQQGNVFSCSVMHEALHNHYTQKSLSLSPG
light 2: QSVLTQPPSVSAAPGQKVTISCSGSSSNIGNNYVSWYQQLPGTAPKLLIYDNNKRPSGIPDRFSGSKSGTSATLGITGLQTGDEADYYCGTWDSSLSAYVFGTGTKVTVLGQPKAAPSVTLFPPSSEELQANKATLVCLISDFYPGAVTVAWKADSSPVKAGVETTTPSKQSNNKYAASSYLSLTPEQWKSHRSYSCQVTHEGSTVEKTVAPTECS
B6: PS3B933 (bispecific antibody, human IgG1, kappa, lambda, L234A L235A)
heavy 1: B5 heavy 1
light 1: B5 light 1
heavy 2: B5 heavy 2 with I55S, W80Y, T91S
light 2: B5 light 2
B7: PS3B935 (bispecific antibody, human IgG1, kappa, lambda, L234A L235A)
heavy 1: B5 heavy 1
light 1: B5 light 1
heavy 2: B5 heavy 2 with I55S, W80Y, T91S
light 2: B5 light 2 with N31I, Y99V, T103G, V107L
B8: PS3B925 (bispecific antibody, human IgG1, kappa, lambda, L234A L235A)
heavy 1: B5 heavy 1
light 1: B5 light 1
heavy 2: B5 heavy 2 with A23T, T28I, I55Y, S57A, T58P, S63T, W80Y, Y110D, T115I
light 2: B5 light 2 with Y50F
B9: PS3B934 (bispecific antibody, human IgG1, kappa, lambda, L234A L235A)
heavy 1: B5 heavy 1
light 1: B5 light 1
heavy 2: B5 heavy 2
light 2: B5 light 2 with N31I, Y99V, T103G, V107L

In one test the target is T1, Human PSMA on prostate cancer cell lines (C4-2B, 22RV1) (human, UniProt Q04609 1-750).
T1 construct: Endogenous PSMA of the human cell lines; also called PSMA+ cells; PSMA-expressing cell lines
T1 sequence (Q04609 whole entry): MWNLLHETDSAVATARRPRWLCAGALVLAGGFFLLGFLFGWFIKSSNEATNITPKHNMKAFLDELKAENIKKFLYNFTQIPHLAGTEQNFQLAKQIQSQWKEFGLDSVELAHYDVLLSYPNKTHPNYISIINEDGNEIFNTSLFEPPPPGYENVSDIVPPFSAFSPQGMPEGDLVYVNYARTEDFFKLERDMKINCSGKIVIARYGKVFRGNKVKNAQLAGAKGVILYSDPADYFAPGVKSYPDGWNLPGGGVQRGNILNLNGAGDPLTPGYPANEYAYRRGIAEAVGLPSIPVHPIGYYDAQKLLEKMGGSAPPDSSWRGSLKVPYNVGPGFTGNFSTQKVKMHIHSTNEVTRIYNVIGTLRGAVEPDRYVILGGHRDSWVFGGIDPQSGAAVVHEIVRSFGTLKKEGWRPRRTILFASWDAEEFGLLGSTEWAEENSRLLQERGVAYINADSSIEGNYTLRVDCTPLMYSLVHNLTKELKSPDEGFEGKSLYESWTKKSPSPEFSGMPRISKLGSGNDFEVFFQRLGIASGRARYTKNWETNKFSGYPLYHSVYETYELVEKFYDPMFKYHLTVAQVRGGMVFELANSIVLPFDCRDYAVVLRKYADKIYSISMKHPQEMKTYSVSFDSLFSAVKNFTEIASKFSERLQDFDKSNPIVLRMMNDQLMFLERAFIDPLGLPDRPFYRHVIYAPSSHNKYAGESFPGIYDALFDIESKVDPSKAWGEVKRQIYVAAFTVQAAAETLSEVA
In words: flow cytometry on 22RV1 cells. The protocol:
(§1) Selected anti-PSMA antibodies were evaluated for binding to commercial prostate cancer cell lines. C4-2B cells were originally developed at MD Anderson and are derived from LNCaP FGC grown in vivo and metastasize to bone marrow (Thalmann, et al 1994, Cancer Research 54, 2577-81). 22Rv1 cells are a human prostate carcinoma epithelial cell line derived from a xenograft that was serially propagated in mice after castration-induced regression and relapse of the parental, androgen-dependent CWR22 xenograft. 22RV1 and C4-2B cells were plated at 50,000 cells per well in 50 μl of assay medium (RPMI, 10% HI FBS) in V bottom plates. Serial dilutions of antibodies were prepared in assay medium with 50 μl of antibody dilutions added to the plates containing cells. The plates were incubated for 60 min at 37° C. at which time 100 μl of staining buffer (Becton Dickinson Cat #554657) was added to all wells of each plate. The plates were centrifuged at 300×G for 5 minutes and the medium was removed from the wells. 200 μl of staining buffer was added to all wells of each plate. The plates were centrifuged at 300×G for 5 minutes and the medium was removed from the wells. 50 μl of 2 μg/ml AlexaFluor647-labeled goat anti-human Fc was added to all wells of the plates and the plates were incubated for 30 minutes at 4° C. 150 μl of staining buffer was added to all wells of each plate. The plates were centrifuged at 300×G for 5 minutes and the medium was removed from the wells.
For orientation: A flow cytometer gives signals particle by particle.
Regarding B1, the EC50 (in general, the concentration that produces a half-maximal response) stood at 1.71 nM.

A further test has as its target T1, Human PSMA on prostate cancer cell …. Description: flow cytometry on C4-2B cells. The protocol: as §1
In turn, B1 came in with an EC50 of 0.941 nM.

For another test the target is unchanged. Description: cell-based or functional assay.
As for B2, the “Tumor killing EC50 [M] (C4-2B + PAN-T cells, 72 h, flow cytometry)” value was 1e-08 M.
Still for that read-out and setting: the value for B3 was 1e-08 M; that for B4 was 3.11e-10 M.
For B5, the “Tumor killing EC50 [M] (C4-2B + PAN-T cells, 72 h, flow cytometry)” value was found to be 6.42e-12 M.
The same measure, in the same setting: the value for B6 was 4.76e-11 M.
On the same count and under the same terms, the value for B7 was 7.16e-12 M; that for B8 was 7.98e-12 M; that for B9 was 7.24e-12 M.

In a further test the target is Human CD3 on T cells / Jurkat cells (human, UniProt P07766 23-207). In words: cell-based or functional assay.
Chain of Human CD3 on T cells / Jurkat cells (P07766 23-207 limits assumed): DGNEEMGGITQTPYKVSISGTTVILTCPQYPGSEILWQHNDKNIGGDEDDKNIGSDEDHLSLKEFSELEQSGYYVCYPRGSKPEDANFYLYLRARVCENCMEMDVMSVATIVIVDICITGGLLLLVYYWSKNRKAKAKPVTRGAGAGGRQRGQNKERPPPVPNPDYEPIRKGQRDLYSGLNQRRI
As for B2, the “T cell activation EC50 [M] (CD25+ T cells, C4-2B co-culture, 72 h)” value (shortened to “T cell activation EC50 [M]”) is 1e-08 M.
B3: the “T cell activation EC50 [M]” value stood at 1e-08 M.
Take B4: the “T cell activation EC50 [M]” value stood at 1.55e-10 M.
Same read-out and setting: the value for B5 was 1.2e-11 M; that for B6 was 6.01e-11 M; that for B7 was 6.72e-12 M.
With B8, the “T cell activation EC50 [M]” value is 4.59e-12 M.
Consider B9, for which the “T cell activation EC50 [M]” value came to 4.81e-12 M.
